Reference: US5650283

Columns and labels:
[1] = system: human AhR + ARNT expressed in yeast (Homo sapiens); assay: cell_activity; settings: lacZ induction over background by betaNF or alphaNF; none with AHR or ARNT only
[2] = system: LexA(1-202)-AHRNΔ166 chimera (synthetic construct); assay: cell_activity; settings: average lacZ induction over background, agonist dependent

## DRE2-DRE3 lacZ reporter (pDRE23-Z)
[1]
  activity: 12 fold

## eight LexA operator lacZ reporter (pSH18-34)
[2]
  activity: 90 fold
